From patent US12359199B2, “Regulation of gene expression via aptamer-mediated control of self-cleaving ribozymes” (MEIRAGTX UK II LIMITED, priority 2016, dated 2025) come the findings set out here.

This series relates to GFP expression in HEK 293 cells. As to the kind of experiment: GFP fluorescence intensity of transfected HEK 293 cells. Format: cell-based. Particulars: ribozyme in 3′ UTR of EGFP; for fold reduction (suppression) of GFP expression / reduction (inhibition/suppression) of GFP expression: compared to pEGFP-C1 control. An excerpt:
Plasmid constructs: oligonucleotides containing wild type or mutant twister ribozyme sequences, either from Nasonia Vitripennis (wasp) or from environmental samples, flanked by BsrGI and MfeI sites, were synthesized (IDT). The synthesized oligonucleotides (“oligos”) were digested with BsrGI and MfeI and cloned into pEGFP-C1 (Clontech) digested with the compatible restriction enzymes. The sequences of the constructed vectors were verified by DNA sequencing (Genewiz).
Transfection and measurement of GFP fluorescence: 3.5×10^4 HEK 293 cells were plated in a 96-well flat bottom plate the day before transfection. Plasmid DNA (500 ng) was added to a tube or a 96-well U-bottom plate. Separately, TransIT-293 reagent (Mirus; 1.4 μl) was added to 50 μl Opti-mem I media (Life Technologies), and allowed to sit for 5 minutes at room temperature (“RT”). Then, 50 μl of this diluted transfection reagent was added to the DNA, mixed, and incubated at RT for 20 min. Finally, 7 μl of this solution was added to a well of cells in a 96-well plate. […] GFP fluorescence intensity was measured by Tecan plate reader, using Excitation wavelength at 484 nm, Emission wavelength at 510 nm and Excitation bandwidth at 5 nm. The GFP fluorescence intensity was expressed as the value generated by GFP constructs subtracted by the value generated by LacZ construct.
Measurement of GFP fluorescence intensity was performed as described in Example 1.

B1: GFP_wasp_no Sac 3HP: GFP wasp-twister construct with SacII site replaced by CGC creating 3 base pair stem (3HP) at P1 stem (nucleic acid)
DNA: GTGACCGCCGCCGGGATCACTCTCGGCATGGACGAGCTGTACAAGTAAACGCCTTGTAATGCGGCCGTGTAAATAATTTACACGTCGGTCTCAAGCCCGATAAACGCAGAGAGCAAGGCGGCCGCCATACCACATTTGTAGAGGTTTTACTTGCTTTAAAAAACCTCCCACACCTCCCCCTGAACCTGAAACATAAAATGAATGC
modifications: misc_feature 1..205 wasp_no Sac 3HP in pEGFP-C1
notes: GFP wasp-twister construct with SacII site replaced by CGC creating 3 base pair stem (3HP) at P1 stem
For the molecule B1, the “fold reduction (suppression) of GFP expression” value (“fold reduction (suppression)” for short) worked out at 104 fold.

B2: wasp-twister: Twister ribozyme sequence from N. vitripennis cloned into the 3′ UTR in pEGFP-C1 vector (nucleic acid)
DNA: GTGACCGCCGCCGGGATCACTCTCGGCATGGACGAGCTGTACAAGTAAACCGCGGCTTGTAATGCGGCCGTGTAAATAATTTACACGTCGGTCTCAAGCCCGATAAACGCAGAGAGCAAGGCGGCCGCCATACCACATTTGTAGAGGTTTTACTTGCTTTAAAAAACCTCCCACACCTCCCCCTGAACCTGAAACATAAAATGAATGC
modifications: misc_feature 1..208 wasp-twister in pEGFP-C1
On to B2, for which the “effect on GFP expression (in words)” value is “reduced expression of GFP”, the “fold reduction (suppression)” value came out at 36 fold and the “reduction (inhibition/suppression) of GFP expression” value (“reduction (inhibition/suppression)” below) was 97%. Further, for the setting “listed as GFP-twister”, the “fold reduction (suppression)” value is listed as 37 fold. For the setting “listed as Wasp-twister”, the “fold reduction (suppression)” value was about 36 fold and the “reduction (inhibition/suppression)” value is “approximately 97%”. Moreover, the “fold reduction (suppression)” value (listed as wild type twister ribozyme) is 44 fold.

B3: wasp-twister Mutant: Cleavage-incapable mutant wasp twister, A6 replaced with G, in 3′ UTR of pEGFP-C1 (nucleic acid)
DNA: GTGACCGCCGCCGGGATCACTCTCGGCATGGACGAGCTGTACAAGTAAACCGCGGCTTGTGATGCGGCCGTGTAAATAATTTACACGTCGGTCTCAAGCCCGATAAACGCAGAGAGCAAGGCGGCCGCCATACCACATTTGTAGAGGTTTTACTTGCTTTAAAAAACCTCCCACACCTCCCCCTGAACCTGAAACATAAAATGAATGC
modifications: misc_feature 1..208 wasp-twister-mut in pEGFP-C1
notes: Cleavage-incapable mutant wasp twister, A6 replaced with G, in 3′ UTR of pEGFP-C1
Turning to B3, the “effect on GFP expression (in words)” value was “did not cause a reduction in GFP expression”. Further, the “effect on GFP expression (in words)” value (listed as A6G mutation) is given as “completely abolished the suppression in GFP expression”.

B4: es-twister: Twister ribozyme sequence from environmental sample cloned into the 3′ UTR in pEGFP-C1 vector (nucleic acid)
DNA: GTGACCGCCGCCGGGATCACTCTCGGCATGGACGAGCTGTACAAGTAAACCGCGGCAATAAAGCGGTTACAAGCCCGCAAAAATAGCAGAGTAATGTCGCGATAGCGCGGCATTAATGCAGCTTTATTGGCGGCCGCCATACCACATTTGTAGAGGTTTTACTTGCTTTAAAAAACCTCCCACACCTCCCCCTGAACCTGAAACATAAAATGAATGC
modifications: misc_feature 1..217 es-twister in pEGFPC1
For B4, the “effect on GFP expression (in words)” value was “significantly reduced target gene expression” and the “reduction (inhibition/suppression)” value is given as “about 50%”.

B5: GFP_wasp_no Sac 0HP: GFP wasp-twister construct with SacII sequence at 5′ end of twister deleted (nucleic acid)
DNA: GTGACCGCCGCCGGGATCACTCTCGGCATGGACGAGCTGTACAAGTAAACTTGTAATGCGGCCGTGTAAATAATTTACACGTCGGTCTCAAGCCCGATAAACGCAGAGAGCAAGGCGGCCGCCATACCACATTTGTAGAGGTTTTACTTGCTTTAAAAAACCTCCCACACCTCCCCCTGAACCTGAAACATAAAATGAATGC
modifications: misc_feature 1..202 wasp_no Sac 0HP in pEGFP-C1
In the case of B5, the “fold reduction (suppression)” value is listed as 68 fold.
